This data set is described as follows: label from the status in PepcDB records.

Twelve sequences from a protein production outcome set (Wang et al. 2014) can be followed below.

“MAAGTDSTGTFATRHSANECLQLQERLWLLEQIAGSASRTALRTTVARGNECRLASCIDLNPEGRPILPSCSALGRAGAAARCCAGRRGRSRARARPAGQTGGGSRVAAECRHISHRGGRGIPVSGGGGAWRSGGASNGRGVFLRPAGTGGSRLATGARQANLGCGPRPACPPAMDQDYERRLLRQIIIQNENTVPCVSEMRRTLTPANSPVSSPSKHGDRFIPSRAGANWSVNFHRINENEKSPSQNRKAKDATSDNGKDGLAYSALLKNELLGAGIEKVQDPQTEDRRLQPSTPEHKGLFTYSLSSKRSSPDDGNDVSPYSLSPVSNKSQKLLRSPRKPTRKISKIPFKVLDAPELQDDFYLNLVDWSSLNVLSVGLGTCVYLWSACTSQVTRLCDLSVEGDSVTSVGWSERGNLVAVGTHKGFVQIWDAAAGKKLSVLEGHTARVGALAWNADQLSSGSRDRMILQRDIRTPALQSERRLQGHRQEVCGLKWSTDHQLLASGGNDNKLLVWNHSSLSPVQQYTEHLAAVKAIAWSPHQHGLLASGGGTADRCIRFWNTLTGQPLQCIDTGSQVCNLAWSKHANELVSTHGYSQNQILVWKYPSLTQVAKLTGHSYRVLYLAMSPDGEAIVTGAGDETLRFWNVFSKTRSTKESVSVLNLFTRIR”: the protein production entry is reported as “failed”.

With “MAAGTFTAQNKVRPGVYINFKSEPQAAGTLGERGIVSMPLILSWGEPGKMITIEAGDDVFPKLGYSIMDAQLRLINEALKRAKTLLLYRLNAGTKAAVTVGNLTVTAKWGGARGNDITLVIQENIDDETKFDVSTLVDGAELDKQTVSDIAGLAANDWVIFSGTGALTETAGAPLINGSDGAVTNQAYIDYLAAVEIFDFNTIALPSTDDALKATFTAFAKRLRDDEGKKIQVVLENYPAADYEGVISVKNGVVLADGTILTAAQATAWVAGATAGARVNESLTYQGYDEAVDVAPRYTNAQIIAALQAGEFLFTASDNQALVEQDINTLTSFTADKGKQFAKNRVIRVLDGINNDFVRIFSKFYIGKVSNNADGRNLLKSECINYMNTLQDIDAIKNFDGQTDLTVQSGNDVDAVYIEAYAWPVDSIEKIYVRVRIKLEHHHHHH”, the protein production result is on record as “not failed”.

For “MAAIDAALKAGEKILSIYEDPKSDFEIERKADNSPLTIADRKAHEAIVAILNETPFPVLSEEGKHMDYAVRRGWDTLWIVDPLDGTKEFIKRNGEFTVNIALVQNAVPVMGVIYVPVKKELYFAVEGTGAYKCSGIVGLEDEGVTLQQMIEKSERMPLADARDHFIAVASRSHLTPETETYIADLKKKHGNVELISSGSSIKICLVAEGKADVYPRFAPTMEWDTAAGHAIARAAGMEVYQAGKEEPLRYNKEDLLNPWFIVEAKRER”, the protein production result is listed as “not failed”.

“MAAKRLAVLCIFLLPNTQFRQLRLAETAEELPQLLREAEKASWTYLEFLESITRYELAKREAKSLEKRMKWARFPFVKSLDEFELRGQNVLTARQLSQLRELSWLEQQYNLILLGPPGIGKTYIAIGLGLEAVYRGFHVYFATMGELVQLLKSEEYLNKSKVQLKRIRNADLVIIDDLMYMAMDQREANLFFHLINHLYERSSIILTSNKSPEEWGHLIGDQGITTAILDRLLHRVEVIHGGENEESHRMKNRKSIFSAEVLEHHHHHH”: the protein production result was “failed”.

In the case of “MAALWAAEAALTPGEVQAELASDLARTTVTTILSRLYDKGVVDRRGVAMVTTPCRTPRGSPPGACIPSSTVTLTGRPSWPASSPSSIRTTNSFCASYWRPTRDDRPLLIPLLLPFVMPLLARRALDRLAPATALWALTAAALVLAGACVTALGALVLTGLLKLPAFAALGELAHPLRTPTGYLVLPAAAIATGLLTIGAWTLAHSALRQTRAFRTARAEADRRPTAGDLCVVDSPHPDAYALPGRPHRIVVTTAMLRSLKPDERDALFAHERAHNQGATTASWSIGSAACRPGRMVSYLGACGARRAGPMRGRRGPRAIPVVCRPVPRSCRGRIVGVSLPSARW”, the protein production entry is given as “failed”.

Turning to “MAANGVSSGACAVSEEEARSEAERLLADPRLHVSDRHRAFLRYIVDARFEGRSDTIKAYSIAIDVFKRPASFDPSSDPIVRIEATRLRESLQKYYAQLADEPGARLDIPRGRYVPVFVERDNPPCPEEDGELEDVGLPTEEPTQAASRPEGRNWRHAIMGGAALAAVSLTGSLAYLAASAAHLNTQKPFVALSINASQNDKAAGEAVMEDLAVSLARFGTVRLKSGASGSRVPSDAMEQSLYEINMRYAENESSVSLWWQVSDAANGEAVWTDEERRPVAAGSREEAMRDLVFAVSRRLARPAGIINTIELRRNLPSSTIGNVCVLRGEFAVEQRDAAGLEAARSCLAATIASDPTDADAMATLARVYVWIGRATGDDSYFGRGLELANRAATLSPSSPRAALAQLGVQYQLGQNEISIAAGRRGVALNPENADLLAKLSMVVFLTGHWDEGVQLARQATEIAGQPIRDASFVMILNDYRQERYAQAVFLARQVPAPDAPTTVLKLAAIARLGDRPVTQQEIAAARLQHPDLERTVTAMFSGARYDSNLRDALRAGILEAGLKMPELASNGAM”, the protein production entry is “failed”.

On to “MAANNRRMSGKKGAQVGSGGKRRRGLEGKGPTPPAEMRKGHAKQRAANAKARRTTGGRPQQRRGGGRSTSELVVGRNPVYEALREGVPASTLYVQQFIDNDERVREALQLAAERGGINLMEAPRPELDRMTNGLNHQGLVLQVPPYEYAHPEDLVAAAHDEGIDPLIVALDGVTDPRNLGAVVRSVSAFGGHGVVVPERRAAGMTAGAWKTSAGTAARTPVARATNLTRALEQYQKAGITVVGLAADGEAELGDLAALDGPVVIVVGSEGKGLSRLVGETCDFRVRIPMPGGAESLNAGVAAGIVLYEAARRRS”, for which the protein production entry is given as “failed”.

Take “MAANNRSDHGSDENTRLYNPYQNYEVPINKSQYLYKLPTSPEFLFTEEALRQRRSWGENLTFYTGTAYLGGSVAGASVGVITGVKSFESGDTTKLKINRILNSSGQTGRTWGNRIGIIGLVYAGIESGIVAATDRDDVWTSVVAGLGTGAVCRAARGVRSAAVAGALGGLAAGAVVAGKQIVKRYVPI”: the protein production result is reported as “failed”.

As to “MAANSNSRVASNHTSKKQKVRRNIHPFTNNTRIKRASKIVKFNDSGEGDHVSDQRSNKENVLTYKSLKSRASDLLKMRETLPVYQHKREIMSYIESNPVTVLIGETGSGKSTQIPQFVLEKLYDTKKHGSIAVTQPRRVAAINLATRVAQEHGCKLGEQVGYSVRFDNTTTTRTRLKYLTDGMLLRELMMNSDLREYSVIVIDEAHERTVLTDLILGFLKSLIQGPRPDLRIIVMSATLQAEKFSEFFNNAPILFVEGRKFDVKQYYLKAPTDDIVDAVIRCCIQINQGEELGDILCFLPGQEEIDKAVTIMEKIAKYVSDEAPVPLIVPYPLYAALPAVQQSLVFAPIKGFKRKVVFSTNIAETSVTISGVKFVVDSGLRKVKVWRHQLGLATLLTVPISQASAMQRSGRAGRESEGKSFRLYCESDYVKLPKQSEPEIARSDVTSPVLMLKRYGVDDLLNWTWFENPGKEAIVMGLQELYELGALDTRGKITKRGQQMALLPLQPHLSSVLIKASEVGCLSQVIDIVSCLSVENLLLNPSPEERDEVNERRLSLCNAGKRYGDLIMLKELFDIYFYELGKSQDASSERNDWCKGLCISIRGFKNVIRVRDQLRVYCKRLFSSISEEDEESKKIGEDGELISKILKCFLTGFIKNTAIGMPDRSYRTVSTGEPISIHPSSMLFMNKSCPGIMYTEYVFTTKGYARNVSRIELSWLQEVVTNAAAVAKQKVSDSK”, the protein production result was “failed”.

“MAAPVVVAPAINLQHMDLPEGNEDVAAVLQTSTQRWLNAAEWSILYNNHNLFPESNSFTIPIEVEGLYRVDNRFNQDSNTWRNTSAPSTCKNAINFYNVRIATGLYRFDDDGDIVMDAEVQGGWVLCRKTVRNRGGGVLTFAHYMWVLV”: the protein production entry was “failed”.

Consider “MAARTLPDRFIARAPVPADAPAIARLIAACQEADGDEPDASAEEVLRDWEGLDLGQEAVLVVAPDGEAAAYADVLNRRYVQLSVYGYVHPRFRGMGLGTWLVQWGEEWIQDRMHLAPAEAQVTVQHYIRASSTSALRLMEQHGYRPVRDIWVMAITLDQPPPAPEWPEGITARTFVPGLDERATYEAVEEAFGDIWGRPPSTFERWLSMTQSERKDPELWLLAVETDSGHIVGTCLGQETAGKGWIGSVGVRRPWRGRGIALALLQEVFGVYYRRGVREVELSVDAESRTGAPRLYRRAGMHVKHRYVLHRKEIRPGIDLSTTAAHS”, for which the protein production entry is recorded as “not failed”.

On to “MAASDSRNNRADEPGFVVQPKGEHRVIIVWLHDKDERSSDSLQFVEQLNLKNVKWICPSLVFPDSFIKGVGGLGMGAAVALHFATSCALNHYTINPRVVVGISGWLSNSGSLKRSIESASHGAPARAASQSIFITHGICKSNRLLFQCDSVPHPCDCGEEAVLSLREAGFRDVKFTPFARFGPTAHENNRNVMVKSWLEEKLQLDVTIP”, for which the protein production entry was “failed”.
